In paper PMC7644020:

What was measured:
[1] = biological target: cFN^ΔRGD (mouse) (UniProt P11276)
[2] = biological target: cFN^RGE (mouse), P11276
Chain of cFN^RGE (mouse), P11276 (P11276 33-2477): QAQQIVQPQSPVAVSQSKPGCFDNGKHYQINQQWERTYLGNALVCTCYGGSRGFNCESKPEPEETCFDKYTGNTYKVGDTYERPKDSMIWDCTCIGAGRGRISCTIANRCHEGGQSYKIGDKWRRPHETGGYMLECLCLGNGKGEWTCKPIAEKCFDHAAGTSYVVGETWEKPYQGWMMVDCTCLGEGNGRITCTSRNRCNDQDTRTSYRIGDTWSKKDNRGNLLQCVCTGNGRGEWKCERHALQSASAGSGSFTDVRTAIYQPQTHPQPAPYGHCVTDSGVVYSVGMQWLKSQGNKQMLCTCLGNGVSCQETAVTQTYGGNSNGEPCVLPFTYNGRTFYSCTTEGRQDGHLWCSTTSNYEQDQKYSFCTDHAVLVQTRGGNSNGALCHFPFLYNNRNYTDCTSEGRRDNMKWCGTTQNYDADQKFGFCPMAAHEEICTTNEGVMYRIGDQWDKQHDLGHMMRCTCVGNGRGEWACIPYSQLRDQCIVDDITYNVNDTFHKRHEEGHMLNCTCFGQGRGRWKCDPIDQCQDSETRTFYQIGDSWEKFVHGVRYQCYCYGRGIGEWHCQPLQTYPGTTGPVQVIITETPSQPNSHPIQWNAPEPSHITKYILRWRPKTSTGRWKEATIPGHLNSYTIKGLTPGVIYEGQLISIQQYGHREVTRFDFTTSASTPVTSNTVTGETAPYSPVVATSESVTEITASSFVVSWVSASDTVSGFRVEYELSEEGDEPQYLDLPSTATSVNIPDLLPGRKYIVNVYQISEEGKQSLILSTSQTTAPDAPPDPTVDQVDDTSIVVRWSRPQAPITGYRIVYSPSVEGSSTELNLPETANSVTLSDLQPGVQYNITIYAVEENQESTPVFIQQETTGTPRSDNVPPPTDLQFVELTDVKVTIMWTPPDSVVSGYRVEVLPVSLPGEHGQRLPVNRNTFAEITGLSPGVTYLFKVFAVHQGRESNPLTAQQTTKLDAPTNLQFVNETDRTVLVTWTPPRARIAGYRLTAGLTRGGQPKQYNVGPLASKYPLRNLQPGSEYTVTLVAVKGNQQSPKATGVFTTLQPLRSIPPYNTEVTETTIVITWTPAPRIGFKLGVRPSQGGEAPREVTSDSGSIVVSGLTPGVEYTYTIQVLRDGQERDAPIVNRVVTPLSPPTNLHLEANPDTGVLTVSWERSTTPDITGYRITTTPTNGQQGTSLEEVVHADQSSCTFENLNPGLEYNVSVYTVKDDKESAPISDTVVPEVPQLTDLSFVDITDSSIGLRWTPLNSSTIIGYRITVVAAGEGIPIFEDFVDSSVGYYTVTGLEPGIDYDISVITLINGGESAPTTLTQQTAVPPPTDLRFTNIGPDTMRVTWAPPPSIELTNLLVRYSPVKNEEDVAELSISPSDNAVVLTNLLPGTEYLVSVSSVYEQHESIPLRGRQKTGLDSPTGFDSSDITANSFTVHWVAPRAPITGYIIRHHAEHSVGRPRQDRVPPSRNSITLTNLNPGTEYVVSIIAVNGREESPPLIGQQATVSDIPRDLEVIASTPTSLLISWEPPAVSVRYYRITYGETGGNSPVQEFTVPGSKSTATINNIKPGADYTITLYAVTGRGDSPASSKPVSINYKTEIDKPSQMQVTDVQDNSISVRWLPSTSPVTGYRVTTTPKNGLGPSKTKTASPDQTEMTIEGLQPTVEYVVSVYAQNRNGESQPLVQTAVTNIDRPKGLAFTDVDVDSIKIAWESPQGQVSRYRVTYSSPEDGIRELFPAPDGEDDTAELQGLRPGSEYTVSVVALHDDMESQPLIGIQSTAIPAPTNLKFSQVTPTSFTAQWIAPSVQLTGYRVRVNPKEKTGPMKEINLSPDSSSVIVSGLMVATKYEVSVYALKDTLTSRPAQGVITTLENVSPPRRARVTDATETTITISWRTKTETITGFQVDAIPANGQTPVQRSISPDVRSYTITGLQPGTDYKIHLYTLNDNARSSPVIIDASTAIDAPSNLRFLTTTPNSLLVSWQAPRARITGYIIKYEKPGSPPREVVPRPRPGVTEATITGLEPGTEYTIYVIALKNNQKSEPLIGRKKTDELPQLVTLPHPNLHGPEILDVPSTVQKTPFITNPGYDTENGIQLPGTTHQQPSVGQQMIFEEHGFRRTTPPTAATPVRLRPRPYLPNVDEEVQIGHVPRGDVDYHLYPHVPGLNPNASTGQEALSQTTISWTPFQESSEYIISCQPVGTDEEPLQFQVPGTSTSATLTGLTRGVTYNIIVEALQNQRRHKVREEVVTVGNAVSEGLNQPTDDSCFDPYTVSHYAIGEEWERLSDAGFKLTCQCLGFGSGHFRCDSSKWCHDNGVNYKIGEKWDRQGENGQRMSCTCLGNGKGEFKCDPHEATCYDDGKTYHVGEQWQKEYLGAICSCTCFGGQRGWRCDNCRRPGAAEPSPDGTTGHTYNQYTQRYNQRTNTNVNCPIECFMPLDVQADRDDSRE

| spreading area of the adherent fibroblasts on the purified cFN variant [1] | spreading area of the few adherent fibroblasts on the purified cFN variant [2] | Molecule |
| --- | --- | --- |
| 136 µm^2 |  | α5β1 integrin on pKO-β1 fibroblasts (from UniProt P11688 45-1053; P09055 21-798) (receptor) |
|  | 419 µm^2 | α5β1 integrin on pKO-β1 fibroblasts, P11688 45-1053; P09055 21-798 (receptor) chain 1: FNLDAEAPAVLSGPPGSLFGFSVEFYRPGRDGVSVLVGAPKANTSQPGVLQGGAVYVCPWGTSPIQCTTIQFDSKGSRILESSLYSAKGEEPVEYKSLQWFGATVRAHGSSILACAPLYSWRTEKDPQNDPVGTCYLSTENFTRILEYAPCRSDFGSAAGQGYCQGGFSAEFTKTGRVVLGGPGSYFWQGQILSATQEQISESYYPEYLINPVQGQLQTRQASSVYDDSYLGYSVAVGEFSGDDTEDFVAGVPKGNLTYGYVTVLNGSDIHSLYNVSGEQMASYFGYAVAATDTNGDGLDDLLVGAPLLMERTADGRPQEVGRVYIYLQRPAGIDPTPTLTLTGQDEFSRFGSSLTPLGDLDQDGYNDVAIGAPFGGEAQQGVVFIFPGGPGGLSTKPSQVLQPLWAAGRTPDFFGSALRGGRDLDGNGYPDLIVGSFGVDKALVYRGRPIISASASLTIFPSMFNPEERSCSLEGNPVSCINLSFCLNASGKHVPNSIGFEVELQLDWQKQKGGVRRALFLTSKQATLTQTLLIQNGAREDCREMKIYLRNESEFRDKLSPIHIALNFSLDPKAPMDSHGLRPVLHYQSKSRIEDKAQILLDCGEDNICVPDLQLDVYGEKKHVYLGDKNALNLTFHAQNLGEGGAYEAELRVTAPLEAEYSGLVRHPGNFSSLSCDYFAVNQSRQLVCDLGNPMKAGTSLWGGLRFTVPHLQDTKKTIQFDFQILSKNLNNSQSNVVSFPLSVEAQAQVSLNGVSKPEAVIFPVSDWNPQDQPQKEEDLGPAVHHVYELINQGPSSISQGVLELSCPQALEGQQLLYVTKVTGLSNCTSNYTPNSQGLELDPETSPHHLQKREAPGRSSTASGTQVLKCPEAKCFRLRCEFGPLHRQESRSLQLHFRVWAKTFLQREYQPFSLQCEAVYEALKMPYQILPRQLPQKKLQVATAVQWTKAEGSNGVPLWIIILAILFGLLLLGLLIYVLYKLGFFKRSLPYGTAMEKAQLKPPATSDA chain 2: QTDKNRCLKANAKSCGECIQAGPNCGWCTNTTFLQEGMPTSARCDDLEALKKKGCQPSDIENPRGSQTIKKNKNVTNRSKGMAEKLRPEDITQIQPQQLLLKLRSGEPQKFTLKFKRAEDYPIDLYYLMDLSYSMKDDLENVKSLGTDLMNEMRRITSDFRIGFGSFVEKTVMPYISTTPAKLRNPCTSEQNCTSPFSYKNVLSLTDRGEFFNELVGQQRISGNLDSPEGGFDAIMQVAVCGSLIGWRNVTRLLVFSTDAGFHFAGDGKLGGIVLPNDGQCHLENNVYTMSHYYDYPSIAHLVQKLSENNIQTIFAVTEEFQPVYKELKNLIPKSAVGTLSGNSSNVIQLIIDAYNSLSSEVILENSKLPDGVTINYKSYCKNGVNGTGENGRKCSNISIGDEVQFEISITANKCPNKESETIKIKPLGFTEEVEVVLQFICKCNCQSHGIPASPKCHEGNGTFECGACRCNEGRVGRHCECSTDEVNSEDMDAYCRKENSSEICSNNGECVCGQCVCRKRDNTNEIYSGKFCECDNFNCDRSNGLICGGNGVCRCRVCECYPNYTGSACDCSLDTGPCLASNGQICNGRGICECGACKCTDPKFQGPTCETCQTCLGVCAEHKECVQCRAFNKGEKKDTCAQECSHFNLTKVESREKLPQPVQVDPVTHCKEKDIDDCWFYFTYSVNGNNEAIVHVVETPDCPTGPDIIPIVAGVVAGIVLIGLALLLIWKLLMIIHDRREFAKFEKEKMNAKWDTGENPIYKSAVTTVVNPKYEGK |
